Experiment [1] has as its target T1, human PD-L1-moFc recombinant protein (human).
T1 construct: also called free PD-L1
In words: flow cytometry, blocking of PD-L1-moFc binding to CHO-K1-huPD-1 cells. How it is done:
The antibodies to be tested were diluted with 3-fold gradient, added at 20 μL/well into the 96-well plate with the antigen added, mixed well, and incubated at room temperature for 15 min. CHO-K1-huPD-1 cells overexpressing human PD-1 were added at 2×10⁴/well into the 96-well plate pre-incubated with antigen-antibody, mixed well, and incubated at room temperature for 15 min. The mixture was centrifuged at 300 g for 5 min, the supernatant was removed, and the cells were washed twice with FACS buffer. Anti-moFc-Alexa 488 (Item No.: 115-545-071, Jackson) secondary antibodies were diluted at 1:300, added, mixed well, and incubated at room temperature for 15 min. The cells were washed three times and measured on instrument for the fluorescence intensity on their surfaces.
Background: Flow cytometry measures light scatter and fluorescence of single cells or particles in a stream.

The target in experiment [2] is T2, human PD-L1 on CHO-K1-huPD-L1 cells (human, UniProt Q9NZQ7 19-290).
T2 construct: whole, on cells; also called cell surface PD-L1; CHO-K1-huPD-L1 cells overexpressing human PD-L1
Nature of the experiment: flow cytometry on CHO-K1-huPD-L1 cells; humanized antibody 900760. How it is done:
CHO-K1-huPD-L1 cells overexpressing human PD-L1 were plated in a 96-well plate at 2×10⁴/well, and the 3-fold serial gradient dilutions of the samples to be tested were added at 20 μl/well, and co-incubated with the cells at room temperature for 30 min. The cells were washed by centrifugation to remove unbound antibodies, and 20 μl of R-Phycoerythrin AffiniPure Goat Anti-Human IgG, Fcγ Fragment Specific (Item No.: 109-115-098, Jackson ImmunoResearch; diluted with 1% (w/v) BSA-PBS at 1:200) fluorescent secondary antibodies were added to each well, and incubated for 15 min. The cells were then washed twice, resuspended in 100 μl of 1% (w/v) BSA-PBS, and detected for their fluorescence intensity at 585 nm by flow cytometry (BD, FACS Cantoll) under 488 nm excitation.

Another experiment addresses Cynomolgus PD-L1 (cynomolgus). In words: SPR, Biacore 8K, antibody captured as ligand, PD-L1 analyte, 1:1 model. (Surface plasmon resonance follows binding to a sensor surface in real time, without labels.)
Experiment [3] deals with T3, recombinant human PD-L1 protein (Item No. 10084-H08H, Sino Biological) (human, UniProt Q9NZQ7 19-238).
T3 construct: Bought protein; also called huPD-L1; human PD-L1 antigen
Described as above.

The target of another experiment is T4, Rabbit PD-L1 (rabbit, UniProt G1SUI3 19-238).
T4 sequence: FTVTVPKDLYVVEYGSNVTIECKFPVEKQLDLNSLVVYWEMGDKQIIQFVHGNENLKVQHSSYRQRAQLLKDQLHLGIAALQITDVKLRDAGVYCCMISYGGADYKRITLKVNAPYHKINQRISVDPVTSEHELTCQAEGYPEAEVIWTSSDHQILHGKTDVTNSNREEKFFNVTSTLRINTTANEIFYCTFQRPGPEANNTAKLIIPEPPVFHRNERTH
The experiment is described as above.

The target in experiment [4] is T2, human PD-L1 on CHO-K1-huPD-L1 cells. In words: cell-based or functional assay.
Experiment [5] concerns the target T3, recombinant human PD-L1 protein (Item …). Nature of the experiment: SPR, humanization screening.
For experiment [6] the target is unchanged. Nature of the experiment: ELISA, humanization screening.

T3 sequence (Q9NZQ7 19-238 limits assumed): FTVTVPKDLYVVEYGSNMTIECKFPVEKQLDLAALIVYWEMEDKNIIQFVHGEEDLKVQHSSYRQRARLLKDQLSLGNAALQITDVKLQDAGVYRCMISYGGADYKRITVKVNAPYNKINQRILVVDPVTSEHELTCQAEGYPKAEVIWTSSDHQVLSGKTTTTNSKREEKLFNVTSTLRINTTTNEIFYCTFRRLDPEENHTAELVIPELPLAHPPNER
T2 sequence (Q9NZQ7 19-290): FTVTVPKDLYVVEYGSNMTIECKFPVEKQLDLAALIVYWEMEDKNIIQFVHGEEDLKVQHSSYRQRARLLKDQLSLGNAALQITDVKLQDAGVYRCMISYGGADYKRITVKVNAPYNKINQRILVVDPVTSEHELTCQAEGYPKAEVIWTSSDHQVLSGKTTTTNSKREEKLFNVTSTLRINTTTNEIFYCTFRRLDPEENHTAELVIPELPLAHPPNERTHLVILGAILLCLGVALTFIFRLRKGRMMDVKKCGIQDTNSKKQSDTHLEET
T1 sequence (chain, as listed by the source limits assumed): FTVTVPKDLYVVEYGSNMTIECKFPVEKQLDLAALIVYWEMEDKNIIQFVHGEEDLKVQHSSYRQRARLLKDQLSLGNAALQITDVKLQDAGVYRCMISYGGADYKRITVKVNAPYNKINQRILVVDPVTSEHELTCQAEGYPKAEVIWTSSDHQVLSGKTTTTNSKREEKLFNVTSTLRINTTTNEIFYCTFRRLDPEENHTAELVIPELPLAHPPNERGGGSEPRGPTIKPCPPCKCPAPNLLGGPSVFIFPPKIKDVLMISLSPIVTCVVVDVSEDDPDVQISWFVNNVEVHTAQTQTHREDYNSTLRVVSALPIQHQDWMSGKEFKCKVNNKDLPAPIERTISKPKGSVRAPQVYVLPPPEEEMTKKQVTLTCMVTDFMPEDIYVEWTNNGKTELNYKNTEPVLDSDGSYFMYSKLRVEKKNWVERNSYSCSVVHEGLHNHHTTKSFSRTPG

B1: humanized anti-PD-L1 antibody No. 900760 (antibody, V domains shown)
VH: QVQLVQSGAEVKKPGASVKVSCKASGYTFTDYYINWVRQAPGQRLEWIGWIYLGSGNAKYSQKFQGRVTITVDTSASTAYMELSSLRSEDTAVYYCARSVGTYWYFDVWGQGTTVTVSS
VL: QIQLTQSPSSLSASVGDRVTMTCSASSSVSYMHWYQQKPGKAPKPWIYDTSNVASGFPARFSGSGSGTDYTLTISSMQPEDFATYYCHQRSSYPWTFGQGTKLEIK
Regarding B1, the IC50 in experiment [1] was determined as 2.27 µg/mL. In experiment [2], this molecule had an EC50 of 0.075 µg/mL. In the experiment with Cynomolgus PD-L1, this molecule returned a Kd of 0.695 nM, a koff of 0.000138 s⁻¹ and a kon of 198000 M⁻¹ s⁻¹. For the same molecule, in experiment [3], the Kd was determined as 0.459 nM, the koff was determined as 0.000158 s⁻¹ and the kon is 345000 M⁻¹ s⁻¹. Besides, in the experiment with Rabbit PD-L1, the Kd was determined as 14 nM, the dissociation rate constant (koff) came to 0.00235 s⁻¹ and the kon was 167000 M⁻¹ s⁻¹. Further, the “EC50, T cell activation (NFAT-luciferase RLU, Jurkat-NFAT-PD-1-5B8 effector cells with CHO-K1-OS8-PD-L1-8D6 target cells)” value in experiment [4] came to 0.416 µg/mL.

B2: 900245Ab-H2L2 (antibody, human IgG1, kappa, L234A L235A, V domains shown)
VH: QIQLVQSGAEVKKPGASVKVSCKASGYTFTDYYINWVRQAPGQRLEWIGWIYLGSGNAKYNEKFKGRATLTVDTSASTAYMELSSLRSEDTAVYYCARCVGTYWYFDVWGQGTTVTVSS
VL: DIQLTQSPSSLSASVGDRVTITCSASSSVSYMHWYQQKPGKAPKPWIYDTSNVQSGFPSRFSGSGSGTDYTLTISSLQPEDFATYYCHQRSSYPWTFGQGTKLEIKR
notes: Humanized; huVH2 + huVL2 on human IgG1 / Ig kappa constants
On to B2, for which the Kd in experiment [5] was 0.816 nM. For the same molecule, the EC50 in experiment [6] is 0.514 µg/mL.

B3: 900245Ab-H5L3 (antibody, human IgG1, kappa, L234A L235A, V domains shown)
VH: QVQLVQSGAEVKKPGASVKVSCKASGYTFTDYYINWVRQAPGQRLEWIGWIYLGSGNAKYSQKFQGRVTITVDTSASTAYMELSSLRSEDTAVYYCARSVGTYWYFDVWGQGTTVTVSS
VL: DIQLTQSPSSLSASVGDRVTITCSASSSVSYMHWYQQKPGKAPKLLIYDTSSLQSGVPSRFSGSGSGTDYTLTISSLQPEDFATYYCHQRSSYPWTFGQGTKLEIKR
notes: Humanized; huVH5 + huVL3 on human IgG1 / Ig kappa constants
For B3, the Kd in experiment [5] is 30.9 nM. In experiment [6], the EC50 was roughly 1410 µg/mL.

B4: 900245Ab-H1L1 (antibody, human IgG1, kappa, L234A L235A, V domains shown)
VH: QIQLVQSGAEVKKPGASVKISCKASGYTFTDYYINWVRQAPGQRLEWIGWIYLGSGNAKYNEKFKGKATLTVDTSASTAYMELSSLRSEDTAVYFCARCVGTYWYFDVWGQGTTVTVSS
VL: QIQLTQSPSSLSASVGDRVTMTCSASSSVSYMHWYQQKPGKAPKPWIYDTSNVASGFPARFSGSGSGTDYTLTISSMQPEDFATYYCHQRSSYPWTFGQGTKLEIKR
notes: Humanized
Take B4: in experiment [5], the Kd was determined as 0.596 nM. Moreover, the concentration for a half-maximal effect (EC50) in experiment [6] was 0.361 µg/mL.

B5: 900245Ab-H5L1 (antibody, human IgG1, kappa, L234A L235A, V domains shown)
VH: QVQLVQSGAEVKKPGASVKVSCKASGYTFTDYYINWVRQAPGQRLEWIGWIYLGSGNAKYSQKFQGRVTITVDTSASTAYMELSSLRSEDTAVYYCARSVGTYWYFDVWGQGTTVTVSS
VL: QIQLTQSPSSLSASVGDRVTMTCSASSSVSYMHWYQQKPGKAPKPWIYDTSNVASGFPARFSGSGSGTDYTLTISSMQPEDFATYYCHQRSSYPWTFGQGTKLEIKR
notes: Humanized; huVH5 + huVL1 on human IgG1 / Ig kappa constants, screening batch from ExpiCHO-s cells; also called CoAD1445
For the molecule B5, in experiment [5], the Kd came to 0.645 nM. Moreover, the EC50 in experiment [6] worked out at 0.502 µg/mL.

B6: 900245Ab-H4L3 (antibody, human IgG1, kappa, L234A L235A, V domains shown)
VH: QVQLVQSGAEVKKPGASVKVSCKASGYTFTDYYINWVRQAPGQRLEWIGWIYLGSGNAKYNEKFKGRVTITVDTSASTAYMELSSLRSEDTAVYYCARSVGTYWYFDVWGQGTTVTVSS
VL: DIQLTQSPSSLSASVGDRVTITCSASSSVSYMHWYQQKPGKAPKLLIYDTSSLQSGVPSRFSGSGSGTDYTLTISSLQPEDFATYYCHQRSSYPWTFGQGTKLEIKR
notes: Humanized; huVH4 + huVL3 on human IgG1 / Ig kappa constants
Consider B6, for which, in experiment [5], the dissociation constant (Kd) was 43.7 nM. Also, the EC50 in experiment [6] was roughly 1520 µg/mL.

B7: 900245Ab-H2L1 (antibody, human IgG1, kappa, L234A L235A, V domains shown)
VH: QIQLVQSGAEVKKPGASVKVSCKASGYTFTDYYINWVRQAPGQRLEWIGWIYLGSGNAKYNEKFKGRATLTVDTSASTAYMELSSLRSEDTAVYYCARCVGTYWYFDVWGQGTTVTVSS
VL: QIQLTQSPSSLSASVGDRVTMTCSASSSVSYMHWYQQKPGKAPKPWIYDTSNVASGFPARFSGSGSGTDYTLTISSMQPEDFATYYCHQRSSYPWTFGQGTKLEIKR
notes: Humanized; huVH2 + huVL1 on human IgG1 / Ig kappa constants
As for B7, the Kd in experiment [5] came out at 0.639 nM. Further, in experiment [6], the EC50 was found to be 0.385 µg/mL.

B8: 900245Ab-H4L2 (antibody, human IgG1, kappa, L234A L235A, V domains shown)
VH: QVQLVQSGAEVKKPGASVKVSCKASGYTFTDYYINWVRQAPGQRLEWIGWIYLGSGNAKYNEKFKGRVTITVDTSASTAYMELSSLRSEDTAVYYCARSVGTYWYFDVWGQGTTVTVSS
VL: DIQLTQSPSSLSASVGDRVTITCSASSSVSYMHWYQQKPGKAPKPWIYDTSNVQSGFPSRFSGSGSGTDYTLTISSLQPEDFATYYCHQRSSYPWTFGQGTKLEIKR
notes: Humanized; huVH4 + huVL2 on human IgG1 / Ig kappa constants
For the molecule B8, the Kd in experiment [5] came out at 1.97 nM. Also, the EC50 in experiment [6] was 1.31 µg/mL.

B9: 900245Ab-H3L1 (antibody, human IgG1, kappa, L234A L235A, V domains shown)
VH: QIQLVQSGAEVKKPGASVKVSCKASGYTFTDYYINWVRQAPGQRLEWIGWIYLGSGNAKYSQKFQGRATLTVDTSASTAYMELSSLRSEDTAVYYCARCVGTYWYFDVWGQGTTVTVSS
VL: QIQLTQSPSSLSASVGDRVTMTCSASSSVSYMHWYQQKPGKAPKPWIYDTSNVASGFPARFSGSGSGTDYTLTISSMQPEDFATYYCHQRSSYPWTFGQGTKLEIKR
notes: Humanized; huVH3 + huVL1 on human IgG1 / Ig kappa constants
For the molecule B9, in experiment [5], the Kd came out at 0.576 nM. Moreover, the EC50 in experiment [6] was found to be 0.381 µg/mL.

B10: 900245Ab-H4L1 (antibody, human IgG1, kappa, L234A L235A, V domains shown)
VH: QVQLVQSGAEVKKPGASVKVSCKASGYTFTDYYINWVRQAPGQRLEWIGWIYLGSGNAKYNEKFKGRVTITVDTSASTAYMELSSLRSEDTAVYYCARSVGTYWYFDVWGQGTTVTVSS
VL: QIQLTQSPSSLSASVGDRVTMTCSASSSVSYMHWYQQKPGKAPKPWIYDTSNVASGFPARFSGSGSGTDYTLTISSMQPEDFATYYCHQRSSYPWTFGQGTKLEIKR
notes: Humanized; huVH4 + huVL1 on human IgG1 / Ig kappa constants
Turning to B10, the Kd in experiment [5] came out at 0.726 nM. Also, the EC50 in experiment [6] amounted to 0.589 µg/mL.

B11: 900245Ab-H3L2 (antibody, human IgG1, kappa, L234A L235A, V domains shown)
VH: QIQLVQSGAEVKKPGASVKVSCKASGYTFTDYYINWVRQAPGQRLEWIGWIYLGSGNAKYSQKFQGRATLTVDTSASTAYMELSSLRSEDTAVYYCARCVGTYWYFDVWGQGTTVTVSS
VL: DIQLTQSPSSLSASVGDRVTITCSASSSVSYMHWYQQKPGKAPKPWIYDTSNVQSGFPSRFSGSGSGTDYTLTISSLQPEDFATYYCHQRSSYPWTFGQGTKLEIKR
notes: Humanized; huVH3 + huVL2 on human IgG1 / Ig kappa constants
Regarding B11, the Kd in experiment [5] was 0.764 nM. Besides, in experiment [6], the EC50 turned out to be 0.787 µg/mL.

B12: 900245Ab-H5L2 (antibody, human IgG1, kappa, L234A L235A, V domains shown)
VH: QVQLVQSGAEVKKPGASVKVSCKASGYTFTDYYINWVRQAPGQRLEWIGWIYLGSGNAKYSQKFQGRVTITVDTSASTAYMELSSLRSEDTAVYYCARSVGTYWYFDVWGQGTTVTVSS
VL: DIQLTQSPSSLSASVGDRVTITCSASSSVSYMHWYQQKPGKAPKPWIYDTSNVQSGFPSRFSGSGSGTDYTLTISSLQPEDFATYYCHQRSSYPWTFGQGTKLEIKR
notes: Humanized; huVH5 + huVL2 on human IgG1 / Ig kappa constants
Regarding B12, the Kd in experiment [5] is 1.67 nM. Besides, in experiment [6], the EC50 was determined as 0.991 µg/mL.

B13: 900245Ab-H3L3 (antibody, human IgG1, kappa, L234A L235A, V domains shown)
VH: QIQLVQSGAEVKKPGASVKVSCKASGYTFTDYYINWVRQAPGQRLEWIGWIYLGSGNAKYSQKFQGRATLTVDTSASTAYMELSSLRSEDTAVYYCARCVGTYWYFDVWGQGTTVTVSS
VL: DIQLTQSPSSLSASVGDRVTITCSASSSVSYMHWYQQKPGKAPKLLIYDTSSLQSGVPSRFSGSGSGTDYTLTISSLQPEDFATYYCHQRSSYPWTFGQGTKLEIKR
notes: Humanized; huVH3 + huVL3 on human IgG1 / Ig kappa constants
Take B13: in experiment [5], the Kd worked out at 10.4 nM. In addition, the EC50 in experiment [6] is 8.7 µg/mL.

Broadly, the IC50 is the midpoint of a concentration-inhibition curve. As usually defined, the EC50 is the concentration needed to bring the measured effect to its halfway point. As a reminder, the Kd is a measure of binding affinity in units of concentration. What is called koff is a measure of how fast the partners let go of each other. By kon is commonly meant the second-order rate constant of association.
